Test results published in paper PMC9482650, “Quantitative fragmentomics allow affinity mapping of interactomes” (Nature Communications, 2022).

T1: DFNB31_3, Q9P202
T1 sequence (Q9P202 811-907, limits assumed, looked up): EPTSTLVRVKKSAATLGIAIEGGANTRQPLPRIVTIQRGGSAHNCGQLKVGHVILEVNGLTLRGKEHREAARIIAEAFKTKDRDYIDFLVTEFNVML

T2: ARHGEF11, O15085
T2 sequence (O15085 42-136, limits assumed, looked up): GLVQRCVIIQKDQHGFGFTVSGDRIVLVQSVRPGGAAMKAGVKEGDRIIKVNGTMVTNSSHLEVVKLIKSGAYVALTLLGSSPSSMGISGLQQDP

T3: GRIP1_5, Q9Y3R0
T3 sequence (Q9Y3R0 568-668, limits assumed, looked up): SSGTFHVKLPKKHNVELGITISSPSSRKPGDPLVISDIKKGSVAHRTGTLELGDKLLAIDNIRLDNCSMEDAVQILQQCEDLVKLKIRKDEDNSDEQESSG

T4: GRIP1_3, Q9Y3R0
T4 sequence (Q9Y3R0 247-346, limits assumed, looked up): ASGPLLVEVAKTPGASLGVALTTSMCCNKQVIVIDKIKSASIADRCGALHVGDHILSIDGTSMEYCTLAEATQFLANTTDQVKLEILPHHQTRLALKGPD

T5: CARD11, Q9BXL7
T5 sequence (Q9BXL7 662-765, limits assumed, looked up): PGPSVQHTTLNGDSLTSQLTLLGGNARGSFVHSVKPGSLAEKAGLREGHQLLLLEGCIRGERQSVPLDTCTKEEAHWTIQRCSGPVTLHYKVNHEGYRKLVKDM

T6: SNTA1, Q13424
T6 sequence (Q13424 82-180, limits assumed, looked up): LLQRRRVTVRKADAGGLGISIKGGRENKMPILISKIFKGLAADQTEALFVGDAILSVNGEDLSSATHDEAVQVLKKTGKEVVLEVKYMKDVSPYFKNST

T7: NHERF3_1, Q5T2W1
T7 sequence (Q5T2W1 4-100, limits assumed, looked up): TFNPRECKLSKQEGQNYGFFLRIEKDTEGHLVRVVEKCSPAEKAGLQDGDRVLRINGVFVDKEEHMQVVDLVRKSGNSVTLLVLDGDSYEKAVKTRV

T8: LNX2_3, Q8N448
T8 sequence (Q8N448 463-564, limits assumed, looked up): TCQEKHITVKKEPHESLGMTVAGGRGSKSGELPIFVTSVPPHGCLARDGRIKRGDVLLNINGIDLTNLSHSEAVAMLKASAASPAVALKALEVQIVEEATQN

T9: RADIL, Q96JH8
T9 sequence (Q96JH8 971-1071, limits assumed, looked up): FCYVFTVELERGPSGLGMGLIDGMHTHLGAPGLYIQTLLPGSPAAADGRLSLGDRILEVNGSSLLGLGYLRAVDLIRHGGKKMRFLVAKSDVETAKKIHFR

T10: MPDZ_10, O75970
T10 sequence (O75970 1624-1722, limits assumed, looked up): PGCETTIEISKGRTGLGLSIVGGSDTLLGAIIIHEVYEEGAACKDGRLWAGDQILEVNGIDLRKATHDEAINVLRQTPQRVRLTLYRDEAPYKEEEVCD


Key:
Assay in all cases: holdup assay
Design in all cases: key: below the threshold = too weak to quantify, mostly under pKd 3.1 to 4
Settings in all cases: plain residues with an end cap or a label only (N-terminal biotin on a linker: ado-ado)
DFNB31_3, Q9P202 = biological target: T1, DFNB31_3, Q9P202
ARHGEF11, O15085 = biological target: T2, ARHGEF11, O15085
PTPN3, P26045 = biological target: PTPN3, P26045
GRIP1_5, Q9Y3R0 = biological target: T3, GRIP1_5, Q9Y3R0
GRIP1_3, Q9Y3R0 = biological target: T4, GRIP1_3, Q9Y3R0
DLG1_2, Q12959 = biological target: DLG1_2, Q12959
Inadl_1, Q8NI35 = biological target: Inadl_1, Q8NI35
MAGI3_2, Q5TCQ9 = biological target: MAGI3_2, Q5TCQ9
MAGI2_2, Q86UL8 = biological target: MAGI2_2, Q86UL8
CARD11, Q9BXL7 = biological target: T5, CARD11, Q9BXL7
NHERF4_2, Q86UT5 = biological target: NHERF4_2, Q86UT5
SNTA1, Q13424 = biological target: T6, SNTA1, Q13424
NHERF3_1, Q5T2W1 = biological target: T7, NHERF3_1, Q5T2W1
LNX2_3, Q8N448 = biological target: T8, LNX2_3, Q8N448
GORASP1, Q9BQQ3 = biological target: GORASP1, Q9BQQ3
GRIP2_5, Q9C0E4 = biological target: GRIP2_5, Q9C0E4
MAGI2_6, Q86UL8 = biological target: MAGI2_6, Q86UL8
FRMPD2_2, Q68DX3 = biological target: FRMPD2_2, Q68DX3
Inadl_4, Q8NI35 = biological target: Inadl_4, Q8NI35
DLG1_3, Q12959 = biological target: DLG1_3, Q12959
HTRA2, O43464 = biological target: HTRA2, O43464
SCRIB_3, Q14160 = biological target: SCRIB_3, Q14160
GRIP2_3, Q9C0E4 = biological target: GRIP2_3, Q9C0E4
RADIL, Q96JH8 = biological target: T9, RADIL, Q96JH8
DLG2_3, Q15700 = biological target: DLG2_3, Q15700
MPDZ_10, O75970 = biological target: T10, MPDZ_10, O75970
MAGI2_5, Q86UL8 = biological target: MAGI2_5, Q86UL8
MAGI2_5, Q86UL8, sequence (Q86UL8 915-1017): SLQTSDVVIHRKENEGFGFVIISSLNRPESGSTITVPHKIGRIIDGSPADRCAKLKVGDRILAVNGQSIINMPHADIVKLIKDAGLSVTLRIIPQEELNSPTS

MAGI2_6, Q86UL8, sequence (Q86UL8 1141-1229): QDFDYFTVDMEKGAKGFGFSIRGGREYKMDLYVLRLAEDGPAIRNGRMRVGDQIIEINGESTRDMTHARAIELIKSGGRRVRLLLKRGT
NHERF4_2, Q86UT5, sequence (Q86UT5 220-308): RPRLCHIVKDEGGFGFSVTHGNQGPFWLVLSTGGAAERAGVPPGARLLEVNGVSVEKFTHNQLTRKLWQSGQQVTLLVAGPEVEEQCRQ
DLG1_3, Q12959, sequence (Q12959 457-571): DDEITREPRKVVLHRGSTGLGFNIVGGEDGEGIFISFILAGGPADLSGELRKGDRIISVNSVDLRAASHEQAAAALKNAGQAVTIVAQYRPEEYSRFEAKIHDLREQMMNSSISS
GRIP2_3, Q9C0E4, sequence (Q9C0E4 238-339): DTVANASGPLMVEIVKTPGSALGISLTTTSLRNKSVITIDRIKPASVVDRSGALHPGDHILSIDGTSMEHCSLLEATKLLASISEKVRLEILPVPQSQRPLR
Inadl_4, Q8NI35, sequence (Q8NI35 547-651): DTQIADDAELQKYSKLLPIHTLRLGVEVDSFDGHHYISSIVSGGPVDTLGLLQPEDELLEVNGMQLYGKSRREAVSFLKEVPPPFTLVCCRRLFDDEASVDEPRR
PTPN3, P26045, sequence (P26045 505-587): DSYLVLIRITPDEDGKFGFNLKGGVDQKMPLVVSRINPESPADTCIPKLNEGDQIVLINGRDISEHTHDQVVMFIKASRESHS
HTRA2, O43464, sequence (O43464 355-458): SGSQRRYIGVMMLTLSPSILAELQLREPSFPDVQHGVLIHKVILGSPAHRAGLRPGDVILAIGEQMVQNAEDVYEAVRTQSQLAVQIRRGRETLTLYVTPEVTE
GRIP2_5, Q9C0E4, sequence (Q9C0E4 544-642): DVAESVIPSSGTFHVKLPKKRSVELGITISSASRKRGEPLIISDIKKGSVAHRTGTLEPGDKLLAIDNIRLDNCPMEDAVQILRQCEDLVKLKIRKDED
GORASP1, Q9BQQ3, sequence (Q9BQQ3 1-208): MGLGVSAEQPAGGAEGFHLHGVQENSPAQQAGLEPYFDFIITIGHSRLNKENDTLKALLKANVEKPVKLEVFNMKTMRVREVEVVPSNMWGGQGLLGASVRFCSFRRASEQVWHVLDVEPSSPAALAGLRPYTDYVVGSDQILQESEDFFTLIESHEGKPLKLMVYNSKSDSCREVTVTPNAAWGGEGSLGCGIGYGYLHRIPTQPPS
FRMPD2_2, Q68DX3, sequence (Q68DX3 944-1038): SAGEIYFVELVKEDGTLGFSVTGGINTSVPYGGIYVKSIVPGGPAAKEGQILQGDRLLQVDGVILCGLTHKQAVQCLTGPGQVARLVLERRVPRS
MAGI2_2, Q86UL8, sequence (Q86UL8 410-522): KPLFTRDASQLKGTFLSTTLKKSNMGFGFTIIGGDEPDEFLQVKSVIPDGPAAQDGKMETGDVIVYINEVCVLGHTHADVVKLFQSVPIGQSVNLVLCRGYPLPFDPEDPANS
MAGI3_2, Q5TCQ9, sequence (Q5TCQ9 398-503): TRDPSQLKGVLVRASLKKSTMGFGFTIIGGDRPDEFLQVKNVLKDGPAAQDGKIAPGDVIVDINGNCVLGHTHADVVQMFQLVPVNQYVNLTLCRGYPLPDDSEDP
SCRIB_3, Q14160, sequence (Q14160 999-1103): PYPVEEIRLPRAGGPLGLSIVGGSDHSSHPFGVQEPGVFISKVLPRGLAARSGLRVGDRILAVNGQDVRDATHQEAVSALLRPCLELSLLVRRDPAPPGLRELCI
DLG1_2, Q12959, sequence (Q12959 314-412): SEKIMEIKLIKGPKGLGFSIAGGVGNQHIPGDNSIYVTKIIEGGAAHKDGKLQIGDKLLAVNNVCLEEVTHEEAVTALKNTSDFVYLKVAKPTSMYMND
Inadl_1, Q8NI35, sequence (Q8NI35 113-229): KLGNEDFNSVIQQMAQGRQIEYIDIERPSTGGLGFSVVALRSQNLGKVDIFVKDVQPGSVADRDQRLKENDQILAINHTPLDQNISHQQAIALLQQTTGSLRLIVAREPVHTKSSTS

| Binder | pKd (DFNB31_3, Q9P202) | pKd (ARHGEF11, O15085) | pKd (PTPN3, P26045) | pKd (GRIP1_5, Q9Y3R0) | pKd (GRIP1_3, Q9Y3R0) | pKd (DLG1_2, Q12959) | pKd (Inadl_1, Q8NI35) | pKd (MAGI3_2, Q5TCQ9) | pKd (MAGI2_2, Q86UL8) | pKd (CARD11, Q9BXL7) | pKd (NHERF4_2, Q86UT5) | pKd (SNTA1, Q13424) | pKd (NHERF3_1, Q5T2W1) | pKd (LNX2_3, Q8N448) | pKd (GORASP1, Q9BQQ3) | pKd (GRIP2_5, Q9C0E4) | pKd (MAGI2_6, Q86UL8) | pKd (FRMPD2_2, Q68DX3) | pKd (Inadl_4, Q8NI35) | pKd (DLG1_3, Q12959) | further results |
| --- | --- | --- | --- | --- | --- | --- | --- | --- | --- | --- | --- | --- | --- | --- | --- | --- | --- | --- | --- | --- | --- |
| ANGLMQTSKL [SSTR5, P35346] | 4.22 | 3.8 | 4.1 | below the threshold | below the threshold | below the threshold | below the threshold | below the threshold | below the threshold | below the threshold | below the threshold | below the threshold | 5.15 | below the threshold | below the threshold | below the threshold | below the threshold | below the threshold | below the threshold | below the threshold | pKd (HTRA2, O43464): below the threshold; pKd (SCRIB_3, Q14160): 3.5; pKd (GRIP2_3, Q9C0E4): below the threshold; pKd (RADIL, Q96JH8): below the threshold; pKd (DLG2_3, Q15700): 3.48; pKd (MPDZ_10, O75970): below the threshold; pKd (MAGI2_5, Q86UL8): below the threshold |
| QSPPNIYYKV [EFNB3, Q15768] | 4.1 | 4.15 | 4.05 | below the threshold | below the threshold | below the threshold | 3.99 | below the threshold | below the threshold | below the threshold | below the threshold | below the threshold | 3.61 | below the threshold | 4.75 | below the threshold | below the threshold | below the threshold | 3.51 | 3.72 | pKd (HTRA2, O43464): 4.3; pKd (SCRIB_3, Q14160): below the threshold; pKd (GRIP2_3, Q9C0E4): below the threshold; pKd (RADIL, Q96JH8): 4.29; pKd (DLG2_3, Q15700): below the threshold; pKd (MPDZ_10, O75970): below the threshold; pKd (MAGI2_5, Q86UL8): below the threshold |
| NASRTRITFV [MCM7, P33993] | 4.74 | 4.35 | 4.71 | below the threshold | below the threshold | 5.28 | below the threshold | 5.49 | 5.31 | below the threshold | below the threshold | 4.97 | 4.28 | below the threshold | 4.86 | below the threshold | 4.16 | 5.11 | below the threshold | 4.12 | pKd (HTRA2, O43464): 4.52; pKd (SCRIB_3, Q14160): 4.37; pKd (GRIP2_3, Q9C0E4): below the threshold; pKd (RADIL, Q96JH8): 5.81; pKd (DLG2_3, Q15700): 4.58; pKd (MPDZ_10, O75970): 4.29; pKd (MAGI2_5, Q86UL8): 3.75 |
| NVYGTESVKI [GRIA3, P42263] | below the threshold | below the threshold | below the threshold | below the threshold | below the threshold | below the threshold | below the threshold | below the threshold | below the threshold | below the threshold | below the threshold | below the threshold | below the threshold | below the threshold | below the threshold | below the threshold | below the threshold | below the threshold | below the threshold | below the threshold | pKd (HTRA2, O43464): below the threshold; pKd (SCRIB_3, Q14160): below the threshold; pKd (GRIP2_3, Q9C0E4): below the threshold; pKd (RADIL, Q96JH8): below the threshold; pKd (DLG2_3, Q15700): below the threshold; pKd (MPDZ_10, O75970): below the threshold; pKd (MAGI2_5, Q86UL8): below the threshold |
| ETSLVKGIDI [DENND5A, Q6IQ26] | below the threshold | 3.79 | below the threshold | below the threshold | below the threshold | below the threshold | below the threshold | 4.39 | 3.48 | below the threshold | below the threshold | below the threshold | below the threshold | below the threshold | below the threshold | below the threshold | below the threshold | below the threshold | below the threshold | 3.76 | pKd (HTRA2, O43464): below the threshold; pKd (SCRIB_3, Q14160): 3.51; pKd (GRIP2_3, Q9C0E4): below the threshold; pKd (RADIL, Q96JH8): below the threshold; pKd (DLG2_3, Q15700): below the threshold; pKd (MPDZ_10, O75970): below the threshold; pKd (MAGI2_5, Q86UL8): below the threshold |
